Our source for the Kd values is publication PMC3467252.

What all share (assay): SPR; surface plasmon resonance; who was immobilised is not told in what was shown; mean +/- 95% CI, n=3
On the technique in general: In SPR one partner is held on a chip, and binding of the other changes the refractive index at the surface.

Test [1] deals with TACI-Fc (extracellular domain of the BLyS receptor TACI fused to the Fc region of human IgG1) (UniProt O14836).
For test [2], the target named is BCMA-Fc (UniProt Q02223).
UniProt Q02223, sequence (Q02223 1-54): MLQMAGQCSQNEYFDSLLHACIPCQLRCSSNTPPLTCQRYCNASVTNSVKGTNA
In test [3] the target is BAFFR-Fc (UniProt Q96RJ3).
UniProt Q96RJ3, sequence (Q96RJ3 1-78): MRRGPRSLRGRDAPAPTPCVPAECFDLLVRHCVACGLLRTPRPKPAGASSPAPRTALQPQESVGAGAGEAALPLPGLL

UniProt O14836, sequence (O14836 1-165): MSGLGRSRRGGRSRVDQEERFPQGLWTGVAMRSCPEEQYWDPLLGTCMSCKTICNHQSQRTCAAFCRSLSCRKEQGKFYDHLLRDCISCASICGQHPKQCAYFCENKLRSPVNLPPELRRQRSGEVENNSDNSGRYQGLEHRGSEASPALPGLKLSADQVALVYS

A word on the Kd: it is the free concentration of one partner at which half of the binding sites on the other are occupied at equilibrium, for simple one-to-one binding. Low readings indicate higher affinity, high ones lower affinity. In the case of BLyS-gelonin fusion toxin, the Kd came to 0.8 nM in test [1], 6.2 nM in test [2] and 2.6 nM in test [3].
